Assay [1] deals with T1, DcR3 binding to membrane LIGHT (EL4-LIGHT cells) (Homo sapiens, UniProt O43557).
T1 construct: expressed in transfected cells; host or cells: EL4 mouse lymphoma cells, stably transduced
As to the kind of experiment: Competition binding of anti-membrane LIGHT antibodies with DcR3-His on EL4-LIGHT cells. The following applies: mAb at up to 100 nM. Here is the method: DcR3 (TNFRSF6B) is a decoy receptor that competes with receptors for ligand binding. DcR3 can bind and neutralise LIGHT with high affinity and TL1A and FasL with lower affinity (Zhan C et al. Structure. 2011, 19:162-71 “Decoy strategies: the structure of TL1A:DcR3 complex”). Stably transduced LIGHT-expressing EL4 cells (mouse lymphoma cell line; EL4-LIGHT) were used for the flow cytometry-based competition-binding analysis.
EL4-LIGHT cells (0.25×10^6) were preincubated with anti-membrane LIGHT mAbs (0-300 nM) for 15 min at 4° C. followed by incubation with DcR3-His tagged (1 nM, Creative BioMart; ref:TNFRSF6B-552H, lot:962512) for 30 min at 4° C. The samples were then incubated with mouse anti-histag antibody (diluted 1:500, Biolegend, cat. no. 652502) for 30 minutes at 4° C., followed by incubation with anti-mouse APC (dil 1:500, BDBiosciences, cat. no. 550826) for 30 minutes at 4° C. The tubes were washed three times after each of the detection antibody stages and flow cytometry analysis was performed. Specific mean fluorescence intensity (MFI) obtained from the binding of DcR3-His to LIGHT on EL4 cells were used to determine the levels of competition binding.

Assay [2] addresses T2, soluble LIGHT amino acids 64-240 (Homo sapiens, UniProt O43557).
T2 construct: 64-240 LIGHT (Abcam, ab82123); purchased Abcam ab82123
As to the kind of experiment: BIAcore (SPR) binding to soluble LIGHT 64-240. Here is the method:
(§1) Real-time binding interactions between captured antibody (chimeric anti-membrane LIGHT monoclonal antibody) captured on a biosensor matrix via goat anti-human Fc IgG and recombinant soluble LIGHT were measured by surface plasmon resonance (SPR) using the BIAcore system (GE Healthcare) according to manufacturer's instructions and standard procedures. Briefly, soluble LIGHT was diluted in HBS running buffer (GE Healthcare) and aliquots were injected through the immobilized protein matrices at a flow rate of […]. BIAevaluation software was used to calculate association rate (ka), dissociation rate (kd) and affinity (KD).
(§2) The specificity of two lead anti-membrane LIGHT mAbs to soluble LIGHT was determined by BIAcore analysis and compared to the KD calculated from the EC50 values in Table 7 (results in Table 9). In brief, mAbs 3D12, 3B04 were compared to a mAb that binds both soluble and membrane LIGHT, F19, (F19 IgG4 mAb from EP2292663). An irrelevant anti-HEL mAb, 2A11, was used as a negative control. The mAbs were captured on an anti-human Fc mAb coated chip and soluble LIGHT was passed over the surface and the kinetic parameters were calculated using BIAcore 3000 software. The soluble LIGHT preparations used were amino acids 74-240 LIGHT (R&D Systems, 664-LI-025) and 64-240 LIGHT (Abcam, ab82123).
On the technique in general: In SPR one partner is held on a chip, and binding of the other changes the refractive index at the surface.

For assay [3], the target named is T3, soluble LIGHT amino acids 74-240 (Homo sapiens, UniProt O43557, K214E).
T3 construct: amino acids 74-240 LIGHT (R&D Systems, 664-LI-025); purchased R&D Systems 664-LI-025
T3 sequence (O43557 74-240 K214E): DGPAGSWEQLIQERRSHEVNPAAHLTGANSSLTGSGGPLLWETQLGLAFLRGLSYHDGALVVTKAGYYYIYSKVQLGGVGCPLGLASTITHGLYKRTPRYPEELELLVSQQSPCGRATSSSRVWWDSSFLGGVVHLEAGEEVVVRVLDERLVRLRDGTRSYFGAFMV
Briefly: BIAcore (SPR) binding to soluble LIGHT 74-240. Here is the method: as §1, §2

Assay [4] deals with T4, membrane LIGHT stably expressed on EL4 cells (Homo sapiens, UniProt O43557).
T4 construct: expressed in transfected cells; host or cells: EL4 mouse lymphoma cells, stably transduced (Cheung et al. J. Immunol. 2009)
T4 sequence (O43557 whole entry): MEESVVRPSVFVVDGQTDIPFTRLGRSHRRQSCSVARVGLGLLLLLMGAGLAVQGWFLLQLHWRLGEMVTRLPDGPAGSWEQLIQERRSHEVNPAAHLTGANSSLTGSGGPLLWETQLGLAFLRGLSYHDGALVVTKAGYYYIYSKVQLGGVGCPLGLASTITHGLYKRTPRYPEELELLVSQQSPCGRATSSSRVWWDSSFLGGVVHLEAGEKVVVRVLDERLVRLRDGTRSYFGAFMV
Briefly: Binding ratio of mAbs bound to membrane LIGHT by flow cytometry (EL4 cells). The conditions noted are these: FIG. 7. Here is the method:
Stably transduced LIGHT expressing EL4 cells (mouse lymphoma cell line; EL4-LIGHT; Cheung et al. J. Immunol. 2009; 183:7286-7296) were used for the flow cytometry-based binding analysis. EL4-LIGHT cells (0.25×10^6 per well) that had been washed in were incubated with anti-LIGHT IgG4 clones (0.002-100 nM) for 30 min at 4° C. The cells were washed and anti-human IgG-APC conjugate (diluted 1:500, Biolegend cat. No. 409306) was used for detecting anti-LIGHT IgG bound on EL4-LIGHT cells.
FIG. 7 depicts the flow cytometry analysis of the anti-membrane LIGHT mAbs (3B04 and 3D12) binding to LIGHT stably expressed on EL4 cells. The maximum signal of the IgG4 mAbs 3B04 and 3D12 binding to membrane LIGHT is approximately 40000 MFI. In contrast anti-LIGHT mAbs F19 and F23 (IgG4 mAbs from EP2292663) gave a maximal signal of approximately 120000 MFI. The ratio of binding of mAb F19 and mAb F23 is approximately 3 times that of the anti-membrane LIGHT mAbs 3B04 and 3D12. […] Other mAbs of this invention; 2E08, 3A07, 3C10, 3E09 and 2B11 also bind LIGHT in a 1:1 ratio when compared to mAbs F19 and F23 by flow cytometry.
(In general: A flow cytometer gives signals particle by particle.)

T2 sequence (O43557 64-240): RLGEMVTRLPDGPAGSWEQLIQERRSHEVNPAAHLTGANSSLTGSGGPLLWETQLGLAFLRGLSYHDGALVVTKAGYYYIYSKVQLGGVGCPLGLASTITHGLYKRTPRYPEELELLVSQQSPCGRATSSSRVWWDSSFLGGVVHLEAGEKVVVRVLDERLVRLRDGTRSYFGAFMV
T1 sequence (O43557 whole entry): as the sequence (O43557 whole entry) above

B1: 3B04: parental mouse anti-membrane LIGHT antibody, VL SEQ ID NO 1, VH SEQ ID NO 5; tested as chimeric human IgG4 mAb (antibody, listed as Homo sapiens, V domains shown)
VH: QVQLQQPGAELVRPGASVTLSCKASGYTFTDYEMHWVKQTPVHGLEWIGEIDPETGDTAYSQKFKGKATLTADKSSSTAYMEFRSLTSEDSAVYYCSRETDYFFDYWGQGTTLTVSS
VL: DIQMTQTPASLSASVGETVTITCGASENIYGALNWYQRKQGKSPQLLIYGATNLADGMSSRFSGSGSGRQYSLKISSLHPDDFATYYCQNVLTTPWTFGGGTKLEIKR
In the case of B1, in assay [1], the “Inhibition of DcR3 binding to membrane LIGHT” value is given as “only partially inhibit”. Besides, in assay [2], the “64-240 LIGHT Ka” value amounted to 251000 M⁻¹ s⁻¹ and the “64-240 LIGHT Kd” value was 0.00345 s⁻¹. In assay [3], the “74-240 LIGHT Ka” value is 222000 M⁻¹ s⁻¹ and the “74-240 LIGHT Kd” value came out at 0.00348 s⁻¹. Further, in assay [4], the “Maximum signal of binding to membrane LIGHT” value was “approximately 40000 MFI”.

B2: 3D12: parental mouse anti-membrane LIGHT antibody, VL SEQ ID NO 41, VH SEQ ID NO 45; tested as chimeric human IgG4 mAb (antibody, listed as Homo sapiens, V domains shown)
VH: QVQLQQPGAELVRPGASVTLSCKASDYTFTDSEIHWVKQTPVHGLEWIGEIDPETGGTAYNQKFKGKATLTADKSSSTAYMELRSLTSEDSAVYYCSRETDYFFDYWGQGTTLTVSS
VL: DIQMTQSPASLSASVGETVTITCGASENIYGALNWYQRKQGKSPQLLIYGATNLADGMSSRFSGSGSGRQYSLKISSLHPDDVATYYCQNVLSTPWTFGGGTKLEIKR
For the molecule B2, the “Inhibition of DcR3 binding to membrane LIGHT” value in assay [1] is listed as “only partially inhibit”. Besides, in assay [2], the “64-240 LIGHT Ka” value is 219000 M⁻¹ s⁻¹ and the “64-240 LIGHT Kd” value is 0.00234 s⁻¹. The “74-240 LIGHT Ka” value in assay [3] was 168000 M⁻¹ s⁻¹. Besides, the “Maximum signal of binding to membrane LIGHT” value in assay [4] is reported as “approximately 40000 MFI”.

Values taken from patent publication US11312781B2, “Antigen binding molecules that bind LIGHT” (Capella Bioscience Ltd., priority 2018, dated 2022).
